Measurements: publication PMC12205877

What was measured:
[1] = biological target: T1, TaBZR2 (Triticum aestivum (ZM1860), UniProt A0A3B6FJ07 1-354); test: EMSA
T1 sequence: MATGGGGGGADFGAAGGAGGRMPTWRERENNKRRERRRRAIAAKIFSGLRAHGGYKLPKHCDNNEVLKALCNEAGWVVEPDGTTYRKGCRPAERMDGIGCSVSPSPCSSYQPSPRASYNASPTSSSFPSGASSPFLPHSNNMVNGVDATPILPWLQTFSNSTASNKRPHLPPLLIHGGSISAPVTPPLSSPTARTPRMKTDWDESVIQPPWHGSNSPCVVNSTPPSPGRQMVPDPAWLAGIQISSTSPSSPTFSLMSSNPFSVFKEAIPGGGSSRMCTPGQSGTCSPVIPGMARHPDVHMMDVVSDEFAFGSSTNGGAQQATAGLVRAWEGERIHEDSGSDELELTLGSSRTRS

[2] = biological target: T1, TaBZR2; test: competition
[3] = biological target: T1, TaBZR2; test: competition; remark: listed apart in the source

B1: TaHSFb2a promoter E-box probe (WT) (dsDNA)
DNA 1: CCGTTTCTAGAAACCTCGCCACGTGGCCGACTAGAAAGGATCG
DNA 2: CGATCCTTTCTAGTCGGCCACGTGGCGAGGTTTCTAGAAACGG
- binding result [1]: binds

B2: TaHSFb2a promoter mutated E-box probe (dsDNA)
DNA 1: CCGTTTCTAGAAACCTCGCTGTACAGCCGACTAGAAAGGATCG
DNA 2: CGATCCTTTCTAGTCGGCTGTACAGCGAGGTTTCTAGAAACGG
- binding result [2]: no binding

B3: TaHSP21 promoter E-box probe (WT) (dsDNA)
DNA 1: AAGCACATATGTGTTGAAACAAGTGCAAAATGACAAGTGAGGGC
DNA 2: GCCCTCACTTGTCATTTTGCACTTGTTTCAACACATATGTGCTT
- binding result [1]: binds

B4: TaHSP21 promoter mutated E-box probe (dsDNA)
DNA 1: AAGCATGCGCATGTTGAAATGGACACAAAATGATGGACAAGGGC
DNA 2: GCCCTTGTCCATCATTTTGTGTCCATTTCAACATGCGCATGCTT
- binding result [3]: no binding
